Test results taken from article PMC6123631.

Legend:
FtFur WT [1] = target: T1, FtFur WT (Francisella tularensis FSC198 (100% …, UniProt Q5NIN6 1-140)); experiment: EMSA; settings: protein: recombinant; tags: none; chain copies: 4; label: 32P 5' end (EMSA)
FtFur WT [2] = target: T1, FtFur WT; experiment: SEC-MALLS-RI; settings: protein: recombinant; tags: none; chain copies: 4; label: none (SEC-MALLS, SAXS)
FtFur WT [3] = target: T1, FtFur WT; experiment: EMSA; 10 uM Mn2+; main species one dimer bound; settings: protein: recombinant; tags: none; chain copies: 4; label: 32P 5' end (EMSA)

B1: PfigAL (PfigA, 43 bp) (dsDNA)
DNA 1: GGGCTACATGATAATGATAACGAATATCATTATCGTTTATGGG
DNA 2: CCCATAAACGATAATGATATTCGTTATCATTATCATGTAGCCC
FtFur WT [1]
  Kd: ~5 nM

B2: FurBox (EcFurBox) (dsDNA)
DNA 1: GGGGATAATGATAATCATTATCGGG
DNA 2: CCCGATAATGATTATCATTATCCCC
FtFur WT [2]
  binding result: binds

B3: PfigAS (dsDNA)
DNA 1: GGGGATAATGATAACGAATATCATTATCGGG
DNA 2: CCCGATAATGATATTCGTTATCATTATCCCC
FtFur WT [3]
  binding result: binds
